In publication PMC11249846 (Protein Science : A Publication of the Protein Society, 2024):

Target: Hsc70‐T204A (human, UniProt P11142 1-646, T204A)
Assay: NMR titration

Chain of Hsc70‐T204A (P11142 whole entry T204A): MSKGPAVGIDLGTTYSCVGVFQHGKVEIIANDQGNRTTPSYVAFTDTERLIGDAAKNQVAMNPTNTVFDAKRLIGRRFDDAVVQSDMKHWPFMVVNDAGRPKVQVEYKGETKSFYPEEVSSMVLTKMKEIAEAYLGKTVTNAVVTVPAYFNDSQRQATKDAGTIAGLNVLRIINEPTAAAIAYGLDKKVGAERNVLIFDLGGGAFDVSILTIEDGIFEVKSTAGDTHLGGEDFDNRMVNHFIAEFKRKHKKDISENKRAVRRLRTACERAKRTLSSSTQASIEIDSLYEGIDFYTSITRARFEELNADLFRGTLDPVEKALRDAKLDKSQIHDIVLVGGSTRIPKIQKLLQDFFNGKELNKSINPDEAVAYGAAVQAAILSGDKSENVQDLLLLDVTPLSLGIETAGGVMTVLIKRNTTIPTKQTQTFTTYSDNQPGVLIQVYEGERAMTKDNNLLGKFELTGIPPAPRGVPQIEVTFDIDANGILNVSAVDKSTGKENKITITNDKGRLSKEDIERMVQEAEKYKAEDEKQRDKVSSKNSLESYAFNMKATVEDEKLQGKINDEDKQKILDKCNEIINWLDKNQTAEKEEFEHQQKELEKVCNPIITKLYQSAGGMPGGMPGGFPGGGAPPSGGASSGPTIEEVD

B1: wt (JD‐G/FR) (domain or fragment)
chain: not shown
Question: Does B1 bind?
Answer: binds
